± gives the uncertainty stated by the source.
B1: Death-inducer obliterator 1, residues 263 to 321; numbered along this chain, Q9BTC0 (parent)
chain: GYDPNALYCICRQPHNNRFMICCDRCEEWFHGDCVGISEARGRLLERNGEDYICPNCTI

Variants of: B1
Assay: abundance fitness (aPCA) (normalised: wild type 0, dead -1); higher = more abundant; growth selection in yeast, the domain comes from the species named
Settings: Homo sapiens
GYDPNALYCICRQPHNNRFMICCDRCEEWFHGDLVGISEARGRLLERNGEDYICPNCTI gave an abundance fitness of -0.805 ± 0.087.
Variant GYDPNALYCICRQPHNNRFMICCDRCEEWFHGDMVGISEARGRLLERNGEDYICPNCTI has an abundance fitness of -0.831 ± 0.14.
Variant GYDPNALYCICRQPHNNRFMICCDRCEEWFHGDKVGISEARGRLLERNGEDYICPNCTI has an abundance fitness of -0.763 ± 0.14.
Variant GYDPNALYCICRQPHNNRFMICCDRCEEWFHGDNVGISEARGRLLERNGEDYICPNCTI has an abundance fitness of -0.937 ± 0.15.
GYDPNALYCICRQPHNNRFMICCDRCEEWFHGDFVGISEARGRLLERNGEDYICPNCTI showed an abundance fitness of -1.12 ± 0.17.
GYDPNALYCICRQPHNNRFMICCDRCEEWFHGDEVGISEARGRLLERNGEDYICPNCTI gave an abundance fitness of -0.608 ± 0.12.
With GYDPNALYCICRQPHNNRFMICCDRCEEWFHGDWVGISEARGRLLERNGEDYICPNCTI the abundance fitness was -1.03 ± 0.2.
GYDPNALYCICRQPHNNRFMICCDRCEEWFHGDRVGISEARGRLLERNGEDYICPNCTI gave an abundance fitness of -0.697 ± 0.089.
For GYDPNALYCICRQPHNNRFMICCDRCEEWFHGDPVGISEARGRLLERNGEDYICPNCTI, the abundance fitness was -0.803 ± 0.12.
Variant GYDPNALYCICRQPHNNRFMICCDRCEEWFHGDSVGISEARGRLLERNGEDYICPNCTI has an abundance fitness of -0.867 ± 0.11.
With GYDPNALYCICRQPHNNRFMICCDRCEEWFHGDGVGISEARGRLLERNGEDYICPNCTI the abundance fitness was -0.726 ± 0.28.
GYDPNALYCICRQPHNNRFMICCDRCEEWFHGDDVGISEARGRLLERNGEDYICPNCTI showed an abundance fitness of -0.376 ± 0.16.
For GYDPNALYCICRQPHNNRFMICCDRCEEWFHGDQVGISEARGRLLERNGEDYICPNCTI, the abundance fitness was -0.644 ± 0.098.
Work on GYDPNALYCICRQPHNNRFMICCDRCEEWFHGDHVGISEARGRLLERNGEDYICPNCTI yielded an abundance fitness of -0.368 ± 0.066.
Work on GYDPNALYCICRQPHNNRFMICCDRCEEWFHGDTVGISEARGRLLERNGEDYICPNCTI yielded an abundance fitness of -0.703 ± 0.092.
With GYDPNALYCICRQPHNNRFMICCDRCEEWFHGDAVGISEARGRLLERNGEDYICPNCTI the abundance fitness was -0.68 ± 0.12.
With GYDPNALYCICRQPHNNRFMICCDRCEEWFHGDCVGHSEARGRLLERNGEDYICPNCTI the abundance fitness was -0.076 ± 0.14.
For GYDPNALYCICRQPHNNRFMICCDRCEEWFHGDCVGRSEARGRLLERNGEDYICPNCTI, the abundance fitness was -0.017 ± 0.057.
Work on GYDPNALYCICRQPHNNRFMICCDRCEEWFHGDCVGSSEARGRLLERNGEDYICPNCTI yielded an abundance fitness of -0.133 ± 0.072.
For GYDPNALYCICRQPHNNRFMICCDRCEEWFHGDCVGTSEARGRLLERNGEDYICPNCTI, the abundance fitness was 0.062 ± 0.09.
GYDPNALYCICRQPHNNRFMICCDRCEEWFHGDCVGGSEARGRLLERNGEDYICPNCTI gave an abundance fitness of -0.122 ± 0.053.
GYDPNALYCICRQPHNNRFMICCDRCEEWFHGDCVGKSEARGRLLERNGEDYICPNCTI gave an abundance fitness of 0.168 ± 0.097.
In the case of GYDPNALYCICRQPHNNRFMICCDRCEEWFHGDCVGVSEARGRLLERNGEDYICPNCTI, the abundance fitness is reported as -0.12 ± 0.072.
With GYDPNALYCICRQPHNNRFMICCDRCEEWFHGDCVGLSEARGRLLERNGEDYICPNCTI the abundance fitness was -0.054 ± 0.062.
GYDPNALYCICRQPHNNRFMICCDRCEEWFHGDCVGASEARGRLLERNGEDYICPNCTI gave an abundance fitness of -0.127 ± 0.061.
For GYDPNALYCICRQPHNNRFMICCDRCEEWFHGDCVGPSEARGRLLERNGEDYICPNCTI, the abundance fitness was -0.253 ± 0.088.
Work on GYDPNALYCICRQPHNNRFMICCDRCEEWFHGDCVGYSEARGRLLERNGEDYICPNCTI yielded an abundance fitness of 0.094 ± 0.086.
In the case of GYDPNALYCICRQPHNNRFMICCDRCEEWFHGDCVGCSEARGRLLERNGEDYICPNCTI, the abundance fitness is reported as -0.113 ± 0.12.
GYDPNALYCICRQPHNNRFMICCDRCEEWFHGDCVGMSEARGRLLERNGEDYICPNCTI gave an abundance fitness of -0.208 ± 0.11.
Variant GYDPNALYCICRQPHNNRFMICCDRCEEWFHGDCVGQSEARGRLLERNGEDYICPNCTI has an abundance fitness of 0.091 ± 0.066.
With GYDPNALYCICRQPHNNRFMICCDRCEEWFHGDCVGDSEARGRLLERNGEDYICPNCTI the abundance fitness was -0.447 ± 0.21.
With GYDPNALYCICRQPHNNRFMICCDRCEEWFHGDCVGWSEARGRLLERNGEDYICPNCTI the abundance fitness was 0.061 ± 0.049.
In the case of GYDPNALYCICRQPHNNRFMICCDRCEEWFHGDCVGESEARGRLLERNGEDYICPNCTI, the abundance fitness is reported as -0.054 ± 0.07.
Variant GYDPNALYCICRQPHNNRFMICCDRCEEWFHGDCVGFSEARGRLLERNGEDYICPNCTI has an abundance fitness of -0.095 ± 0.097.
For GYDPNALYCICRQPHNNRFMICCDRCEEWFHGDCVGIQEARGRLLERNGEDYICPNCTI, the abundance fitness was -0.251 ± 0.13.
GYDPNALYCICRQPHNNRFMICCDRCEEWFHGDCVGIVEARGRLLERNGEDYICPNCTI gave an abundance fitness of 0.071 ± 0.067.
GYDPNALYCICRQPHNNRFMICCDRCEEWFHGDCVGIREARGRLLERNGEDYICPNCTI showed an abundance fitness of -0.13 ± 0.056.
Variant GYDPNALYCICRQPHNNRFMICCDRCEEWFHGDCVGIPEARGRLLERNGEDYICPNCTI has an abundance fitness of 0.001 ± 0.065.
GYDPNALYCICRQPHNNRFMICCDRCEEWFHGDCVGIGEARGRLLERNGEDYICPNCTI showed an abundance fitness of 0.03 ± 0.1.
With GYDPNALYCICRQPHNNRFMICCDRCEEWFHGDCVGIAEARGRLLERNGEDYICPNCTI the abundance fitness was -0.053 ± 0.13.
For GYDPNALYCICRQPHNNRFMICCDRCEEWFHGDCVGIFEARGRLLERNGEDYICPNCTI, the abundance fitness was -0.238 ± 0.13.
GYDPNALYCICRQPHNNRFMICCDRCEEWFHGDCVGICEARGRLLERNGEDYICPNCTI showed an abundance fitness of -0.166 ± 0.16.
Work on GYDPNALYCICRQPHNNRFMICCDRCEEWFHGDCVGIIEARGRLLERNGEDYICPNCTI yielded an abundance fitness of 0.155 ± 0.13.
For GYDPNALYCICRQPHNNRFMICCDRCEEWFHGDCVGIHEARGRLLERNGEDYICPNCTI, the abundance fitness was -0.033 ± 0.15.
In the case of GYDPNALYCICRQPHNNRFMICCDRCEEWFHGDCVGIEEARGRLLERNGEDYICPNCTI, the abundance fitness is reported as -0.146 ± 0.13.

Reference: the Human Domainome abundance scans (Beltran et al. 2025)
